Reference: the supplement of paper PMC9112550, “Optimization of the antimicrobial peptide Bac7 by deep mutational scanning” (BMC Biology, 2022)

The sequences below were run on Escherichia coli TOP10 (assay: shrunken log2 fold change of peptide-encoding DNA abundance (4.5 h post-induction vs induction); higher = less antimicrobial activity (less host growth inhibition)). Conditions: time post-induction: 4.5 h; library: site-saturation at positions 5, 18, 19, 20.
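Also: peptides expressed intracellularly from a pBAD plasmid library in pooled LB shake-flask culture, induced with 0.3% L-arabinose, DNA abundance read by NGS, three biological replicates, DESeq2 with apeglm shrinkage.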

Sequence	shrunken log2 fold change
RRIRIRPPRLPRPRPRPACAPRP	-0.149
RRIRFRPPRLPRPRPRPRRQPRP	0.108
RRIRQRPPRLPRPRPRPHYTPRP	-0.509
RRIRFRPPRLPRPRPRPRMNPRP	-0.173
RRIRNRPPRLPRPRPRPVDDPRP	0.0318
RRIRWRPPRLPRPRPRPHKIPRP	-0.0312
RRIRGRPPRLPRPRPRPLWDPRP	0.537
RRIRTRPPRLPRPRPRPSWAPRP	0.195
RRIRYRPPRLPRPRPRPLDEPRP	3.09
RRIRCRPPRLPRPRPRPMKWPRP	0.0655
RRIRQRPPRLPRPRPRPMAGPRP	0.132
RRIRCRPPRLPRPRPRPQFSPRP	-0.145
RRIRNRPPRLPRPRPRPFETPRP	0.0215
RRIRMRPPRLPRPRPRPATWPRP	0.515
RRIRVRPPRLPRPRPRPDTIPRP	-0.00658
RRIRPRPPRLPRPRPRPERGPRP	0.575
RRIRVRPPRLPRPRPRPEAYPRP	-0.0262
RRIRIRPPRLPRPRPRPWLYPRP	-0.0424
RRIRPRPPRLPRPRPRPLIAPRP	0.113
RRIRTRPPRLPRPRPRPGVYPRP	-0.116
RRIRCRPPRLPRPRPRPAVIPRP	-0.383
RRIRMRPPRLPRPRPRPDSYPRP	0.0873
RRIRDRPPRLPRPRPRPWYCPRP	-0.137
RRIRTRPPRLPRPRPRPFADPRP	-0.112
RRIRWRPPRLPRPRPRPSRVPRP	0.253

Sequence	shrunken log2 fold change
RRIRGRPPRLPRPRPRPDGWPRP	1.34
RRIRVRPPRLPRPRPRPLQRPRP	-0.0358
RRIRVRPPRLPRPRPRPGINPRP	-0.0188
RRIRGRPPRLPRPRPRPGNPPRP	0.134
RRIRRRPPRLPRPRPRPASFPRP	0.309
RRIRKRPPRLPRPRPRPCRSPRP	-0.0126
RRIRERPPRLPRPRPRPEAKPRP	0.0152
RRIRLRPPRLPRPRPRPICGPRP	-0.0025
RRIRCRPPRLPRPRPRPVSEPRP	0.00852
RRIRIRPPRLPRPRPRPYEMPRP	-0.00062
RRIRHRPPRLPRPRPRPKIVPRP	0.00911
RRIRIRPPRLPRPRPRPTRNPRP	-0.268
RRIRVRPPRLPRPRPRPPGQPRP	0.266
RRIRSRPPRLPRPRPRPNGDPRP	-0.0155
RRIRVRPPRLPRPRPRPSMDPRP	2.34
RRIRRRPPRLPRPRPRPTWRPRP	0.667
RRIRFRPPRLPRPRPRPNGMPRP	-0.0957
RRIRLRPPRLPRPRPRPCWNPRP	-0.291
RRIRMRPPRLPRPRPRPHEVPRP	0.16
RRIRSRPPRLPRPRPRPHMLPRP	-0.104
RRIRTRPPRLPRPRPRPSHMPRP	-0.7
RRIRARPPRLPRPRPRPVWHPRP	0.324
RRIRVRPPRLPRPRPRPPMIPRP	-0.523
RRIRLRPPRLPRPRPRPCRGPRP	0.157
RRIRHRPPRLPRPRPRPANSPRP	-0.271

Sequence	shrunken log2 fold change
RRIRRRPPRLPRPRPRPFGAPRP	0.153
RRIRARPPRLPRPRPRPHINPRP	-0.325
RRIRIRPPRLPRPRPRPVTFPRP	-0.00574
RRIRRRPPRLPRPRPRPCHRPRP	-0.0875
RRIRHRPPRLPRPRPRPPMVPRP	0.0642
RRIRFRPPRLPRPRPRPRGAPRP	0.493
RRIRKRPPRLPRPRPRPVTCPRP	-0.0146
RRIRTRPPRLPRPRPRPRYRPRP	-0.0728
RRIRWRPPRLPRPRPRPETFPRP	0.0493
RRIRIRPPRLPRPRPRPEMRPRP	-0.0182
RRIRVRPPRLPRPRPRPYEPPRP	-1.29
RRIRGRPPRLPRPRPRPARCPRP	0.749
RRIRRRPPRLPRPRPRPWFSPRP	-0.0902
RRIRVRPPRLPRPRPRPFMIPRP	-0.256
RRIRSRPPRLPRPRPRPAYLPRP	-0.731
RRIRSRPPRLPRPRPRPLHPPRP	0.578
RRIRLRPPRLPRPRPRPWPRPRP	0.113
RRIRARPPRLPRPRPRPHVQPRP	0.00547
RRIRNRPPRLPRPRPRPSDCPRP	-0.483
RRIRMRPPRLPRPRPRPSISPRP	0.000307
RRIRPRPPRLPRPRPRPMFTPRP	-0.178
RRIRGRPPRLPRPRPRPCNPPRP	-0.266
RRIRIRPPRLPRPRPRPQVDPRP	0.0508
RRIRPRPPRLPRPRPRPILSPRP	-0.038
RRIRNRPPRLPRPRPRPSKDPRP	-0.285

Sequence	shrunken log2 fold change
RRIRVRPPRLPRPRPRPKGKPRP	0.102
RRIRHRPPRLPRPRPRPGHKPRP	0.0956
RRIRIRPPRLPRPRPRPFGGPRP	-0.103
RRIRLRPPRLPRPRPRPCLFPRP	-0.0955
RRIRMRPPRLPRPRPRPVSYPRP	-0.00671
RRIRWRPPRLPRPRPRPMHWPRP	0.194
RRIRLRPPRLPRPRPRPHCYPRP	0.011
RRIRARPPRLPRPRPRPEGVPRP	1.1
RRIRLRPPRLPRPRPRPYFMPRP	-0.855
RRIRPRPPRLPRPRPRPAKKPRP	0.0429
RRIRYRPPRLPRPRPRPNNGPRP	-0.156
RRIRWRPPRLPRPRPRPEAWPRP	1.02
RRIRMRPPRLPRPRPRPSLYPRP	-0.126
RRIRIRPPRLPRPRPRPLFKPRP	-0.773
RRIRVRPPRLPRPRPRPMNVPRP	-0.0915
RRIRCRPPRLPRPRPRPKVIPRP	-0.297
RRIRHRPPRLPRPRPRPAPEPRP	0.0106
RRIRERPPRLPRPRPRPMFCPRP	-0.168
RRIRVRPPRLPRPRPRPTIKPRP	-0.226
RRIRGRPPRLPRPRPRPCNWPRP	0.101
RRIRGRPPRLPRPRPRPWGQPRP	0.204
RRIRIRPPRLPRPRPRPEQIPRP	-9e-05
RRIRRRPPRLPRPRPRPYGIPRP	-0.161
RRIRSRPPRLPRPRPRPHLWPRP	-0.0232
RRIRKRPPRLPRPRPRPQRVPRP	0.146

Sequence	shrunken log2 fold change
RRIRVRPPRLPRPRPRPMLVPRP	0.0916
RRIRQRPPRLPRPRPRPYWDPRP	-0.192
RRIRYRPPRLPRPRPRPHFFPRP	-0.518
RRIRGRPPRLPRPRPRPRPPPRP	1.19
RRIRQRPPRLPRPRPRPYPPPRP	-0.357
RRIRGRPPRLPRPRPRPKPPPRP	2.28
RRIRARPPRLPRPRPRPPQWPRP	0.814
RRIRHRPPRLPRPRPRPFYPPRP	-0.623
RRIRTRPPRLPRPRPRPCVAPRP	0.192
RRIRRRPPRLPRPRPRPATCPRP	0.161
RRIRKRPPRLPRPRPRPLVTPRP	0.24
RRIRPRPPRLPRPRPRPYGMPRP	-0.155
RRIRMRPPRLPRPRPRPIHDPRP	0.0367
RRIRARPPRLPRPRPRPWRSPRP	0.143
RRIRARPPRLPRPRPRPIKPPRP	0.0335
RRIRQRPPRLPRPRPRPHTRPRP	0.107
RRIRHRPPRLPRPRPRPSNPPRP	-0.219
RRIRTRPPRLPRPRPRPLSLPRP	-0.613
RRIRGRPPRLPRPRPRPATFPRP	0.326
RRIRTRPPRLPRPRPRPIQRPRP	0.0582
RRIRWRPPRLPRPRPRPCQQPRP	-0.219
RRIRDRPPRLPRPRPRPLHVPRP	-0.133
RRIRMRPPRLPRPRPRPIPMPRP	0.414
RRIRYRPPRLPRPRPRPHIKPRP	-0.887
RRIRWRPPRLPRPRPRPQGQPRP	0.203
